Laboratory results published in PMC2749713 (Molecular cell, 2009).
Substitutions are numbered along the chain they refer to. Names and notes keep the numbering of the source. One block for each binder: values may come before it. No end group written: not given here.

What was measured:
[1] = molecular target: PP2A C subunit (Cα) (human, UniProt P67775 1-309); assay: crystal structure
[2] = molecular target: FLAG-tagged MBP-Sgo1(47-105) (human, UniProt Q5FBB7 47-105); assay: pull-down
[3] = molecular target: AαB56γCα PP2A holoenzyme (human, UniProt P30153 2-589; Q13362 1-524; P67775 1-309); assay: SEC + other: dynamic light scattering
AαB56γCα PP2A holoenzyme, sequence (P30153 2-589, chain 1 of 3): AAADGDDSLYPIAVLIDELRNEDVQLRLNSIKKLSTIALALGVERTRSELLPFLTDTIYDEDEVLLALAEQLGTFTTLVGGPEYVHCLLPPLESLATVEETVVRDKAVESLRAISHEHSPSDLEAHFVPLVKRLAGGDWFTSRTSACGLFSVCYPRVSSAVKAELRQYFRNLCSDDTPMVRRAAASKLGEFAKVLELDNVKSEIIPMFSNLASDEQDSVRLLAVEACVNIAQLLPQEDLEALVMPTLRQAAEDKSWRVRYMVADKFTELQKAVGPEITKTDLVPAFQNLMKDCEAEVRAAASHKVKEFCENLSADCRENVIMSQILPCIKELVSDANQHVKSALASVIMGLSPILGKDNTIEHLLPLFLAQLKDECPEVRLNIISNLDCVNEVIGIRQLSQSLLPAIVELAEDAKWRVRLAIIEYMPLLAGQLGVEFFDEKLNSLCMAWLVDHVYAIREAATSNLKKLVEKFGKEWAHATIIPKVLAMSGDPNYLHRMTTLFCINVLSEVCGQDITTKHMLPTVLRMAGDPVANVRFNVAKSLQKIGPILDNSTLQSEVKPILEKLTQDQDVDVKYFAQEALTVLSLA
AαB56γCα PP2A holoenzyme, sequence (Q13362 whole entry, chain 2 of 3): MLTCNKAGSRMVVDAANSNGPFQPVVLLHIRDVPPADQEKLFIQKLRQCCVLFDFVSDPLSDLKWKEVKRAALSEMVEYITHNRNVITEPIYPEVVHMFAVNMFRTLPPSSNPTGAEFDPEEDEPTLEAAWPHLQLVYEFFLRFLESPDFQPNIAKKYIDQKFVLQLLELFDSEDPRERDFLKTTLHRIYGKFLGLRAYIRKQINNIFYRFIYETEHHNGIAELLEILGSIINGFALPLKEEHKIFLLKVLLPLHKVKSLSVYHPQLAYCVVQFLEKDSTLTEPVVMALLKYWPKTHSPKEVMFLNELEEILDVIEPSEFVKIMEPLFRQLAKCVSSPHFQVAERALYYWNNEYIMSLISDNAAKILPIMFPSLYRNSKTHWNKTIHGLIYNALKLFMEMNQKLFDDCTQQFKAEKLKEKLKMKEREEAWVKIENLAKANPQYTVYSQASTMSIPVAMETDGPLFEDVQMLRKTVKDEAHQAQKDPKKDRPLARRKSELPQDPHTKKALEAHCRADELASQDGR
AαB56γCα PP2A holoenzyme, sequence (P67775 whole entry, chain 3 of 3): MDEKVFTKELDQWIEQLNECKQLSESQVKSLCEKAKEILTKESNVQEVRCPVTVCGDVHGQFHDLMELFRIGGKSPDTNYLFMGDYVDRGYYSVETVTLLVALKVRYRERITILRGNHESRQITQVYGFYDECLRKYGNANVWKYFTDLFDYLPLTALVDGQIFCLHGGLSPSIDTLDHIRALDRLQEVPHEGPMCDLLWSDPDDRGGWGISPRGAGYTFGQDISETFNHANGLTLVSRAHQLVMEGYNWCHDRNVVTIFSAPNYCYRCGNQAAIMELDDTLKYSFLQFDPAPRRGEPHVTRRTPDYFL

[4] = molecular target: FLAG-tagged MBP-Sgo1(47-105) Y57A/N60A (dimerization assay) (human, UniProt Q5FBB7 47-105, Y57A | N60A); assay: pull-down
[5] = molecular target: FLAG-Sgo1(51-105) peptide (human, UniProt Q5FBB7 51-105); assay: pull-down
[6] = molecular target: FLAG-tagged MBP-Sgo1(47-105) Y57A/K62A (dimerization assay) (human, UniProt Q5FBB7 47-105, Y57A | K62A); assay: pull-down
[7] = molecular target: FLAG-tagged MBP-Sgo1(47-105) N60A/K62A (dimerization assay) (human, UniProt Q5FBB7 47-105, N60A | K62A); assay: pull-down
[8] = molecular target: FLAG-tagged MBP-Sgo1(47-105) N61I (dimerization assay) (human, UniProt Q5FBB7 47-105, N61I); assay: pull-down

PP2A C subunit (Cα), sequence (P67775 whole entry): as the sequence (P67775 whole entry, chain 3 of 3) above

binding result [1]: binds
B1: Sgo1(51-96) peptide (peptide, UniProt Q5FBB7 51-96, looked up)
chain: STLLKNYQDNNKMLVLALENEKSKVKEAQDIILQLRKECYYLTCQL

binding result [2]: binds
stoichiometry N [3]: 2 Sgo1 per PP2A holoenzyme
B2: MBP-Sgo1(51-105) (domain or fragment, human, UniProt Q5FBB7 51-105, looked up)
chain: STLLKNYQDNNKMLVLALENEKSKVKEAQDIILQLRKECYYLTCQLYALKGKLTS

binding result [4]: binds
B3: MBP-Sgo1(51-105) Y57A/N60A, untagged (dimerization assay) (domain or fragment, human, UniProt Q5FBB7 51-105, looked up)
chain: B2 chain with Y7A, N10A
modifications: cysteine pairing not given here; also: MBP fusion

stoichiometry N [3]: 2 Sgo1 per PP2A holoenzyme
binding result [5]: binds
B4: Sgo1(51-105) (peptide, UniProt Q5FBB7 51-105, looked up)
chain: B2 chain

binding result [6]: binds
B5: MBP-Sgo1(51-105) Y57A/K62A, untagged (dimerization assay) (domain or fragment, human, UniProt Q5FBB7 51-105, looked up)
chain: B2 chain with Y7A, K12A
modifications: cysteine pairing not given here; also: MBP fusion

binding result [7]: binds
B6: MBP-Sgo1(51-105) N60A/K62A, untagged (dimerization assay) (domain or fragment, human, UniProt Q5FBB7 51-105, looked up)
chain: B2 chain with N10A, K12A
modifications: cysteine pairing not given here; also: MBP fusion

binding result [8]: binds
B7: MBP-Sgo1(51-105) N61I, untagged (dimerization assay) (domain or fragment, human, UniProt Q5FBB7 51-105, looked up)
chain: B2 chain with N11I
modifications: cysteine pairing not given here; also: MBP fusion
